Results published in PMC4999541 (mBio, 2016).
Where two headings read alike, the source gives them in different places. Numbered stars: 1 amine (or outer) side, 2 acyl side, 3 side chain; on linkers, the order of the positions; unused ones are H or OH. Bridge positions count the residues as written; N and C are the ends. Square brackets hold non-standard residues; d marks the D form. Peptide text beside a SMILES is read from it. Adda = CO[C@@H](Cc1ccccc1)[C@@H](C)/C=C(C)/C=C/[C@H](N[*:1])[C@H](C)C(=O)[*:2]; dAsp(3S-Me) = C[C@H](C(=O)[*:3])[C@@H](N[*:1])C(=O)[*:2]; d(γGlu) = O=C(O)[C@@H](CCC(=O)[*:2])N[*:1]; NMeDha = C=C(NC)C(=O)O

Columns and labels:
PP1c = type: biochemical, rabbit
PPZ1FL = PPZ1FL (Candida albicans, UniProt C4YM68); type: biochemical
PPZ1cat [1] = target: T1, PPZ1cat (Candida albicans, UniProt C4YM68); experiment: Phosphatase inhibition assay, pNPP substrate, PPZ1cat; type: biochemical
PP1α [2] = target: T2, PP1α (Homo sapiens, UniProt P62136); experiment: Phosphatase inhibition assay, pNPP substrate, PP1α; type: biochemical; design: made in house; host or cells: E. coli
Target sequence in this assay (P62136 whole entry): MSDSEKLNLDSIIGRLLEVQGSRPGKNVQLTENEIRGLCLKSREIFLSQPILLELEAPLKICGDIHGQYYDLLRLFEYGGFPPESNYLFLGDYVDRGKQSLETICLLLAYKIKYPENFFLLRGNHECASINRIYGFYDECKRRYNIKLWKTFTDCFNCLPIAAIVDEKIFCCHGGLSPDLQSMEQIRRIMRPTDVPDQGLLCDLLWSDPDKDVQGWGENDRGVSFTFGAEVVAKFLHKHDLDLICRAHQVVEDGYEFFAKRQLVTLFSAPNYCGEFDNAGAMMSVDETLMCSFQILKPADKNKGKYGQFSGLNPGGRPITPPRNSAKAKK

PPZ1cat [3] = target: T1, PPZ1cat; type: biochemical
PP1α [4] = target: T2, PP1α; conditions: cited from earlier work
Target sequence in this assay (P62136 2-330): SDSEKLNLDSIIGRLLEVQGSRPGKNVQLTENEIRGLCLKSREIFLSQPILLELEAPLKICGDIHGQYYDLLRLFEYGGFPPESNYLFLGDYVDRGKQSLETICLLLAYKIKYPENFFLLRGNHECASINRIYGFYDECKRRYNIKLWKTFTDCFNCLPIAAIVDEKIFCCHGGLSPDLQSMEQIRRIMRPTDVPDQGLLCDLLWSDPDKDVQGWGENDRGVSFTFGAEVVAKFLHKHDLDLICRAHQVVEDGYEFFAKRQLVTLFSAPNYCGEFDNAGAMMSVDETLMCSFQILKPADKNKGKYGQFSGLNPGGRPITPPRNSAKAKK

PPZ1cat [5] = target: T1, PPZ1cat; experiment: Pulldown assay with PPZ1cat; type: binding; conditions: for Less binding in pulldown by PPZ1 compared to PP1α: densitometry of the gel
Description: (§1) GADD34_552–567 was purchased. PNUTS394–433 and spinophilin417–602 were purified according to a method described previously ([19], [27]). […]. PP1α7–330 and PPZ1cat were purified by the method described above but retained the His tag. After SEC (20 mM Tris [pH 8.0], 500 mM NaCl, 0.5 mM TCEP, 1 mM MnCl2), 50% (vol/vol) glycerol was added to both PP1α7–330 and PPZ1cat. The final concentrations of the proteins were adjusted to 5 µM. […] of each PP1 regulator was added into 500 µl of PP1α7–330 or PPZ1cat. The mixture was incubated under rocking (4°C) for 60 min to allow for complex formation. A 15-μl bed volume of Ni-NTA resin (GE Healthcare) was added into tubes, and the mixture was incubated at 4°C for 60 min. The beads were pelleted by centrifugation (2000 × g) and washed three times with 500 µl of SEC buffer. Forty microliters of SDS loading buffer was added to the beads, and the samples were boiled at 80°C for 5 min and analyzed on NuPAGE 4 to 12% bis-Tris gels. Gels were stained overnight with SYPRO ruby protein gel stain (Life Technologies) according to the manufacturer’s protocols and scanned using a Typhoon 9410 laser scanner (GE Healthcare) with an excitation wavelength of 457 nm and emission filter of 610 nm following destaining. Densitometry was performed using ImageQuant TL 7.0 software for quantification of the band intensity.

PP1α [6] = target: T2, PP1α; conditions: cited from earlier work; remark: listed apart in the source
Target sequence in this assay (P62136 2-330): as above

PP1α7–330 = target: T3, PP1α7–330 (Homo sapiens, UniProt P62136); experiment: Pulldown assay with PP1α; type: binding; conditions: compared to wild-type spinophilin; in words
T3 construct: PP1α7–330 and PPZ1cat were purified by the method described above; made in house; host or cells: E. coli
Description: as §1

[7] = target: C. albicans PPZ1 C-terminal catalytic domain (aa 171 to 484), His6 tag removed (Candida albicans) (UniProt Q59U06)
[8] = target: catalytic subunit of rabbit skeletal muscle protein phosphatase 1 (rabbit) (UniProt P62139)
Target sequence in this assay (P62139 whole entry): as the sequence (P62136 whole entry) above

[9] = target: human PP1α(7-330), His tag retained (human) (UniProt P62136)
[10] = target: T4, full-length C. albicans PPZ1 (Candida albicans) (UniProt Q59U06)
T4 sequence: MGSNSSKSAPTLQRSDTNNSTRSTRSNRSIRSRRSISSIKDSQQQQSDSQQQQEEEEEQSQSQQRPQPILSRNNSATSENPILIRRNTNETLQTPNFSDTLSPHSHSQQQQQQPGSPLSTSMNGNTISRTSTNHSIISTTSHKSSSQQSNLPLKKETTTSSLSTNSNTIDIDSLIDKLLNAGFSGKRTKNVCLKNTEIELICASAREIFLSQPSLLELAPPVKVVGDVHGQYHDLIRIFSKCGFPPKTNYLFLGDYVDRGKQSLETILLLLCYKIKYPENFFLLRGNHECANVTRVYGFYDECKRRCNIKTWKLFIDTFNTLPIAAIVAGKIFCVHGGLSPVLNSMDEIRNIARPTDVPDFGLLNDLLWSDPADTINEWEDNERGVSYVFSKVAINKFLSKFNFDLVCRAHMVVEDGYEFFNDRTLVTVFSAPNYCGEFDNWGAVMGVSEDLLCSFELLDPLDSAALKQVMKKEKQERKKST

PP1α [11] = target: T2, PP1α; conditions: cited from earlier work; remark: listed apart in the source
Target sequence in this assay (P62136 2-330): as the sequence (P62136 2-330) above

[12] = target: C. albicans PPZ1 C-terminal catalytic domain (aa 171 to 484), His6 tag removed (Candida albicans) (UniProt Q59U06); remark: listed apart in the source
[13] = target: catalytic subunit of rabbit skeletal muscle protein phosphatase 1 (rabbit) (UniProt P62139); remark: listed apart in the source
Target sequence in this assay (P62139 2-330): as the sequence (P62136 2-330) above

[14] = target: T4, full-length C. albicans PPZ1 (Candida albicans); remark: listed apart in the source
[15] = target: T5, C. albicans PPZ1 C-terminal catalytic domain (aa 171 to 484), His6 tag removed (Candida albicans, UniProt Q59U06 169-482); experiment: ITC; conditions: both partners purified
T5 construct: also called PPZ1cat; CaPPZ1
T5 sequence: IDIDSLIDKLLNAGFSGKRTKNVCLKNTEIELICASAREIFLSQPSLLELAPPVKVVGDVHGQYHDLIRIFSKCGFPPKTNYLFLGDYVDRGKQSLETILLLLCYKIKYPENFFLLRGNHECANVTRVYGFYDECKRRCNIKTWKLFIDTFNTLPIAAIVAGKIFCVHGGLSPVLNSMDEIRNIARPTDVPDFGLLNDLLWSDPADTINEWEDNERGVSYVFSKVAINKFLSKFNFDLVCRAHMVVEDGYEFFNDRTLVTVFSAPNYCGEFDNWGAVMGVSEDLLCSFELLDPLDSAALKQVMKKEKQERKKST

T1 sequence (C4YM68 entry or part of it): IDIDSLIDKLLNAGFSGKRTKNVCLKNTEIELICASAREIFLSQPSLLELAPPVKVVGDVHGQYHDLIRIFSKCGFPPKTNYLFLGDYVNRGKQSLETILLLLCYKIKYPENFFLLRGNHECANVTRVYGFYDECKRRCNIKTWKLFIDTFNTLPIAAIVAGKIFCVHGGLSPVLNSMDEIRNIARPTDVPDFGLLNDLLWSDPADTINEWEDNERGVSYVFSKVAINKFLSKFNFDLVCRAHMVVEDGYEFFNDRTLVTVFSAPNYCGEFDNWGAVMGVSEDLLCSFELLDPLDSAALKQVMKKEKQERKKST
T3 sequence (P62136 7-330): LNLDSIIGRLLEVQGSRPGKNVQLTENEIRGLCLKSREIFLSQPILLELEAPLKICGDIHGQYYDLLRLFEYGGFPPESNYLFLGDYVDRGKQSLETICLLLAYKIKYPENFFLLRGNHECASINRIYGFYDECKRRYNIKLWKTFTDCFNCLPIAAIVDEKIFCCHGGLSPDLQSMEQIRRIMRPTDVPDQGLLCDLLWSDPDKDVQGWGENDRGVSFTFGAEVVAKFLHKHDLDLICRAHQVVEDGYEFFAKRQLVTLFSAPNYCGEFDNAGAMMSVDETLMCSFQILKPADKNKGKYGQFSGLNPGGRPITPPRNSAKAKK
PPZ1FL, sequence (C4YM68 entry or part of it): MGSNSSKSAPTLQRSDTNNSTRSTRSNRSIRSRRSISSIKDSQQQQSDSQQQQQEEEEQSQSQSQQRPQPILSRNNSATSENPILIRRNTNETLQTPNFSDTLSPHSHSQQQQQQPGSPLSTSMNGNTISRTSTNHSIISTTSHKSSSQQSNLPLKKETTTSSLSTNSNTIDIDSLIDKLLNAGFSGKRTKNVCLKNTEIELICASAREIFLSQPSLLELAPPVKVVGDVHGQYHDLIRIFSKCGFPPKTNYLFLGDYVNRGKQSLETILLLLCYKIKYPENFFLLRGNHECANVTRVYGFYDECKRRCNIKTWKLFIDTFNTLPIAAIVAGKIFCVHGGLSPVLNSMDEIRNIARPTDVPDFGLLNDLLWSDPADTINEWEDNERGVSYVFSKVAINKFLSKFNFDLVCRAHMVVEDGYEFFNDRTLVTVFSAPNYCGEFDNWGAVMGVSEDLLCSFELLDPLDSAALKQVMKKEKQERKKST
human PP1α(7-330), His tag retained (human), sequence (P62136 7-330): as the sequence (P62136 7-330) above

C=C1C(=O)N[C@H](C)C(=O)N[C@@H](CC(C)C)C(=O)N[C@@H](C(=O)O)[C@H](C)C(=O)N[C@@H](CCCNC(=N)N)C(=O)N[C@@H](/C=C/C(C)=C/[C@H](C)[C@H](Cc2ccccc2)OC)[C@H](C)C(=O)N[C@@H](C(=O)O)CCC(=O)N1C [MC, microcystin-LR] (R[Adda][d(γGlu)][NMeDha][dA]L[dAsp(3S-Me)]-OH; lactam N-7)
IC50 (PP1c): 0.43 nM | IC50 (PPZ1FL; read-out: IC50 of MC): 0.96 nM | IC50 (PPZ1cat [1]): 11.8 nM | IC50 (PP1α [2]): 4.4 nM | IC50 (PPZ1cat [3]; read-out: IC50 of MC): 0.72 nM

GADD34 552-567 (from UniProt O75807)
Kd (PP1α [4]): 62 nM

GADD34_552–567: purchased peptide, minimal PP1-binding domain of regulator GADD34 with RVxF and ΦΦ motifs (KARKVRFSEKVTVHFL)
Binding in pulldown by PPZ1cat compared to PP1α (PPZ1cat [5]; in words): less effectively

PNUTS394–433: minimal PP1-binding domain of PP1 regulator PNUTS (RVxF-ΦΦ-Arg) (RKRKTVTWPEEGKLREYFYFELDETERVNVNKIKDFGEAA)
Less binding in pulldown by PPZ1 compared to PP1α (PPZ1cat [5]): ~ 85%

PNUTS 394-433 (from UniProt Q96QC0)
Kd (PP1α [6]): 9.3 nM

SpinoR469D: spinophilin417–602 variant with Arg motif mutation R469D
Amount of spinophilin variant pulled down by PP1α (PP1α7–330): reduces the amount of spinophilin pulled down

SpinoR469E: spinophilin417–602 variant with Arg motif mutation R469E
Amount of spinophilin variant pulled down by PP1α (PP1α7–330): reduces the amount of spinophilin pulled down

microcystin-LR (peptide)
inhibition of phosphatase activity, 32P-labeled MLC20 (pMLC) substrate, IC50 [7]: 0.72 nM | inhibition of phosphatase activity, pNPP substrate, IC50 [7]: 11.8 nM | inhibition of phosphatase activity, 32P-labeled MLC20 (pMLC) substrate, IC50 [8]: 0.43 nM | inhibition of phosphatase activity, pNPP substrate, IC50 [9]: 4.4 nM | inhibition of phosphatase activity, 32P-labeled MLC20 (pMLC) substrate, IC50 [10]: 0.96 nM

spinophilin417–602: minimal PP1-binding domain of PP1 regulator spinophilin
Less binding in pulldown by PPZ1 compared to PP1α (PPZ1cat [5]): ~ 85%

spinophilin 417-602 (from UniProt O35274)
Kd (PP1α [11]): 8.7 nM

B1: recombinant 6×His-tagged inhibitor-2 (natural protein)
chain: MAASTASHRPIKGILKNKTSTTSSMVASAEQPRGNVDEELSKKSQKWDEMNILATYHPADKDYGLMKIDEPSTPYHSMMGDDEDACSDTEATEAMAPDILARKLAAAEGLEPKYRIQEQESSGEEDSDLSPEEREKKRQFEMKRKLHYNEGLNIKLARQLISKDLHDDDEDEEMLETADGESMNTEESNQGSTPSDQQQNKLRSS
inhibition of phosphatase activity by increasing concentrations of I-2, IC50 [12]: 7 nM | inhibition of phosphatase activity by increasing concentrations of I-2, IC50 [13]: 12 nM | inhibition of phosphatase activity by increasing concentrations of I-2, IC50 [14]: 278 nM

B2: I-2: inhibitor-2, a specific protein inhibitor of PP1; recombinant 6×His-tagged (protein)
chain: AASTASHRPIKGILKNKTSTTSSMVASAEQPRGNVDEELSKKSQKWDEMNILATYHPADKDYGLMKIDEPSTPYHSMMGDDEDACSDTEATEAMAPDILARKLAAAEGLEPKYRIQEQESSGEEDSDLSPEEREKKRQFEMKRKLHYNEGLNIKLARQLISKDLHDDDEDEEMLETADGESMNTEESNQGSTPSDQQQNKLRSS
IC50 (PPZ1FL; PPZ1FL, includes N-terminal IDP domain, read-out: IC50 of I-2): 278 nM | IC50 (PPZ1cat [3]; PPZ1cat, recombinant I-2, read-out: IC50 of I-2): 7 nM

B3: GADD34(552-567) peptide (peptide, UniProt O75807 552-567, looked up)
peptide: KARKVRFSEKVTVHFL
notes: also called G34
Kd [15]: 1150 ± 90 nM
